Assay results reported in PMC7033278, “A Nonpeptide Oxytocin Receptor Agonist for a Durable Relief of Inflammatory Pain” (Scientific Reports, 2020).
Read-outs that look alike come from different tables or passages of the source.

Assays:
[1] = molecular target: T1, ionotropic TRPV1 receptor (Homo sapiens, UniProt Q8NER1); experiment: Eurofins functional profiling, TRPV1 agonist/antagonist; assay type: cell-based; conditions: 5 μM
T1 construct: Eurofins (contract assay)
Description: In vitro profiling of LIT-001 was performed by Eurofins as described in the Eurofins SafetyScreen-Functional panel, 2018[31]. The hepatotoxicity of LIT-001 was studied with cryo-preserved mouse hepatocytes. After unfreezing (optiTHAW and optiINCUBATE media, Xenotech) and cell viability control, cells (2 × 10^6 cells/ml) were dispatched in 96 well microtiterplates. LIT-001 was added to reach a concentration 1 μM in the presence of 1 × 10^6 cells/mL in a volume of 100 μl/well. The incubation was stopped at 4, 20, 40, 80 and 120 min in adding 100 μl of acetonitrile at 0 °C. A positive control was treated in the same conditions. All samples were analyzed by UHPLC coupled to a mass spectrometer (Shimadzu LC-MS 8030).

[2] = parameters: method as in PMID 6831225; conditions: rat CSF (abstract: humans and rats), cited from earlier work
[3] = molecular target: Transient Receptor Potential Vanilloid type-1 (TRPV1); parameters: method as in PMID 29117570; conditions: cited from earlier work
[4] = parameters: method as in PMID 19183510; conditions: humans and rats; listed as OT; cited from earlier work
[5] = stated for comparison, no reference given; cited from earlier work

T1 sequence (Q8NER1 whole entry): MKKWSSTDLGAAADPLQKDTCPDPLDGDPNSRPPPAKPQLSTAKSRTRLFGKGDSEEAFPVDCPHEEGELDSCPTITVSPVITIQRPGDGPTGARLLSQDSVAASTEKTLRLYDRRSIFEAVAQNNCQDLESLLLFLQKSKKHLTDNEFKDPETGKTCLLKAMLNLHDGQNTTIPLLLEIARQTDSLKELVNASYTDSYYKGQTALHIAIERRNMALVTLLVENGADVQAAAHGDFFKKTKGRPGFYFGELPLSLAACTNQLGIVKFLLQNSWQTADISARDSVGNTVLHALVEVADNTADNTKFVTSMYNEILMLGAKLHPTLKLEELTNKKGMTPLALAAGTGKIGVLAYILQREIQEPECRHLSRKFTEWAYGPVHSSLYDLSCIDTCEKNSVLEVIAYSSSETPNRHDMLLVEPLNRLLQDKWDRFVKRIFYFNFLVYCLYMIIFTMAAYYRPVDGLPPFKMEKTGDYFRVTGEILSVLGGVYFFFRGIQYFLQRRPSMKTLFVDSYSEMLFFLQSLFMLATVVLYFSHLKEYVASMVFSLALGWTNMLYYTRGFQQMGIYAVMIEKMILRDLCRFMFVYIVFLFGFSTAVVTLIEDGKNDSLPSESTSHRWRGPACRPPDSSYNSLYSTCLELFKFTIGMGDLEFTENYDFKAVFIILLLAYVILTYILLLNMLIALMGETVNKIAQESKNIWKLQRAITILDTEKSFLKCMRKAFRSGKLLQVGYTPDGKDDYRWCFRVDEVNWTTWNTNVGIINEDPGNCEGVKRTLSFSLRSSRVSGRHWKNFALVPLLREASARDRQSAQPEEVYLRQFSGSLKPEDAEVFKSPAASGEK

| Compound | agonist or antagonist activity at TRPV1 receptor [1] | half-life in cerebrospinal fluid (CSF) [2] | half-life in cerebrospinal fluid (CSF) ([2]; listed as OT) | EC50 [3] | half-life in the blood circulation [4] | half-life [5] |
| --- | --- | --- | --- | --- | --- | --- |
| Cc1ccccc1N1CCN(S(=O)(=O)C[C@]23CC[C@H](C[C@@H]2NC(=O)[C@@H](N)CCS(C)(=O)=O)C3(C)C)CC1 [L-368,699, reference compound] | neither LIT-001 nor the OT antagonist L-368,699 displayed any significant agonist or antagonist activity | – | – | – | – | – |
| Oxytocin | – | around twenty | around 20 minutes | 316 nM | 5 min | less than 15 min |
